According to publication PMC5300761:
pKd: −log10 of the molar value. Several values for one entry are separate records, joined by “and”; a condition that tells them apart may be missing. Equal entries are not always repeated.

What was measured:
[1] = biological target: CRD-BP WT (mouse) (UniProt O88477); test: EMSA; details: EMSA as in refs 21,22 (buffer not given; competitor preincubation 35 C), FP: binding buffer stock 10 mM Tris-HCl pH 7.4, 2.5 mM EDTA, 5% glycerol, 0.002% …
[2] = biological target: CRD-BP D526E D526E (mouse) (UniProt O88477); test: EMSA; details: EMSA as in refs 21,22 (buffer not given; competitor preincubation 35 C); FP: binding buffer stock 10 mM Tris-HCl pH 7.4, 2.5 mM EDTA, 5% glycerol, 0.002% …
CRD-BP D526E D526E (mouse), sequence (O88477 whole entry D526E): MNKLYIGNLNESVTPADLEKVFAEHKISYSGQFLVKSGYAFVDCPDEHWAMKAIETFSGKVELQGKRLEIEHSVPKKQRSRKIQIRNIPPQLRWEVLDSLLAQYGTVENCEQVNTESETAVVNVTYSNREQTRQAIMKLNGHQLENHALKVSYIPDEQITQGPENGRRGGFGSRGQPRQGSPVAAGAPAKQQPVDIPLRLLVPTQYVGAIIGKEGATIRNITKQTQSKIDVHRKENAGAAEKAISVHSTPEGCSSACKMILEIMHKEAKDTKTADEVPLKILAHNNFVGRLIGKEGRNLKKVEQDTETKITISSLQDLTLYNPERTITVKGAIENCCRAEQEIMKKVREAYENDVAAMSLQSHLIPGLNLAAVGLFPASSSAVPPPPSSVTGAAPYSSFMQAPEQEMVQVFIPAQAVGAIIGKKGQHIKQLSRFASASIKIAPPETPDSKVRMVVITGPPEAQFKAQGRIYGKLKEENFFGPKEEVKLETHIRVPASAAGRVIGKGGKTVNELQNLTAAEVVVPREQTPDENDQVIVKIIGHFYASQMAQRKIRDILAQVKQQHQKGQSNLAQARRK

[3] = biological target: CRD-BP KH1 G212D (mouse) (UniProt O88477); test: EMSA; details: EMSA as in refs 21,22 (buffer not given; competitor preincubation 35 C); FP: binding buffer stock 10 mM Tris-HCl pH 7.4, 2.5 mM EDTA, 5% glycerol, 0.002% …
CRD-BP KH1 G212D (mouse), sequence (O88477 whole entry G212D): as the sequence (O88477 whole entry D526E) above, with G212D, E526D counted along it

[4] = biological target: CRD-BP KH2 G293D (mouse) (UniProt O88477); test: EMSA; details: EMSA as in refs 21,22 (buffer not given; competitor preincubation 35 C); FP: binding buffer stock 10 mM Tris-HCl pH 7.4, 2.5 mM EDTA, 5% glycerol, 0.002% …
CRD-BP KH2 G293D (mouse), sequence (O88477 whole entry G293D): as the sequence (O88477 whole entry D526E) above, with G293D, E526D counted along it

[5] = biological target: CRD-BP KH3 G422D (mouse) (UniProt O88477); test: EMSA; details: EMSA as in refs 21,22 (buffer not given; competitor preincubation 35 C); FP: binding buffer stock 10 mM Tris-HCl pH 7.4, 2.5 mM EDTA, 5% glycerol, 0.002% …
CRD-BP KH3 G422D (mouse), sequence (O88477 whole entry G422D): as the sequence (O88477 whole entry D526E) above, with G422D, E526D counted along it

[6] = biological target: CRD-BP KH3-4 G422D;G504D (mouse) (UniProt O88477); test: EMSA; details: EMSA as in refs 21,22 (buffer not given; competitor preincubation 35 C); FP: binding buffer stock 10 mM Tris-HCl pH 7.4, 2.5 mM EDTA, 5% glycerol, 0.002% …
CRD-BP KH3-4 G422D;G504D (mouse), sequence (O88477 whole entry G422D/G504D): as the sequence (O88477 whole entry D526E) above, with G422D, G504D, E526D counted along it

[7] = biological target: CRD-BP KH4 G504D (mouse) (UniProt O88477); test: EMSA; details: EMSA as in refs 21,22 (buffer not given; competitor preincubation 35 C); FP: binding buffer stock 10 mM Tris-HCl pH 7.4, 2.5 mM EDTA, 5% glycerol, 0.002% …
CRD-BP KH4 G504D (mouse), sequence (O88477 whole entry G504D): as the sequence (O88477 whole entry D526E) above, with G504D, E526D counted along it

[8] = biological target: CRD-BP Y5A Y5A (mouse) (UniProt O88477); test: EMSA; details: EMSA as in refs 21,22 (buffer not given; competitor preincubation 35 C); FP: binding buffer stock 10 mM Tris-HCl pH 7.4, 2.5 mM EDTA, 5% glycerol, 0.002% …
CRD-BP Y5A Y5A (mouse), sequence (O88477 other isoform, or with tags, fused parts or gaps): as the sequence (O88477 whole entry D526E) above, with Y5A, E526D counted along it

[9] = biological target: CRD-BP WT (mouse) (UniProt O88477); test: competition; details: EMSA as in refs 21,22 (buffer not given; competitor preincubation 35 C); FP: binding buffer stock 10 mM Tris-HCl pH 7.4, 2.5 mM EDTA, 5% glycerol, 0.002% …
[10] = test system: CRD-BP D526E (mouse); test: EMSA; details: EMSA as in refs 21,22 (buffer not given; competitor preincubation 35 C); FP: binding buffer stock 10 mM Tris-HCl pH 7.4, 2.5 mM EDTA, 5% glycerol, 0.002% …
[11] = test system: CRD-BP KH3-4 (mouse); test: EMSA; details: EMSA as in refs 21,22 (buffer not given; competitor preincubation 35 C); FP: binding buffer stock 10 mM Tris-HCl pH 7.4, 2.5 mM EDTA, 5% glycerol, 0.002% …
[12] = test system: CRD-BP Y5A (mouse); test: EMSA; details: EMSA as in refs 21,22 (buffer not given; competitor preincubation 35 C); FP: binding buffer stock 10 mM Tris-HCl pH 7.4, 2.5 mM EDTA, 5% glycerol, 0.002% …

CRD-BP WT (mouse), sequence (O88477 whole entry): as the sequence (O88477 whole entry D526E) above, with E526D counted along it

For “GGAUUGUACAAAUAAGUGUGCAGUAUCUGUGAACUGAAUUCACCACAGACUUUAGCUUUCUGAGCAAGAGGAUUUUGCGUCAGAGAAAUGUCUGUCCAUUUUUAUUCAGGGGAAACUUGAUU [MITF RNA 1550-1669]”, the binding [1] was “binds”.

“GGCUGAAUUCACCACAGACUUUAGCUUUCUGAGCAAGAGGAUUUUGCGUCAGAGAAAUGUCUGUCCAUUUUUAUUCAGGGGAAACUUGAUUUGAGAUUUUUAUGCCUGUGACUUCCUUGGAAAUCAAAUGUAAAGUUUAAUUGAAAGAAUGUAAAGCAACCA [MITF RNA 1581-1740]” was tested, and the binding [1] was “binds”.

With “GGAUUGUACAAAUAAGUGUGCAGUAUCUGUGAACUGAAUUCACCACAGACUUUAGCUUUCUGAGCAAGAGGAUUUUGCGUCAGAGAAAUGUCUGUCCAUUUUUAUUCAGGGGAAACUUGAUUUGAGAUUUUUAUGCCUGUGACUUCCUUGGAAAUCAAAUGUAAAGUUUAAUUGAAAGAAUGUAAAGCAACCA [MITF RNA 1550-1740]” the pKd [2] was 7.04, the binding [3] was “binds” and the binding [4] was “no binding”. For the same substance, the binding [5] was “no binding”, the pKd [6] was 6.81 and the binding [7] was “no binding”. The pKd [1] was 6.49 and 6.88, the binding [1] was “binds” and the pKd [8] was 7.07. For the same substance, the binding [9] was “binds”.

Substance MITF RNA 1550-1740 has a pKd [10] of 7.04, a pKd [11] of 6.81 and a pKd ([1]; 40 nM RNA, compared with deletion RNA) of 6.49. The pKd [1] was 6.88 and the pKd [12] was 7.07.

With “GGUUUGCGUCAGAGAAAUGUCUGUCCAUUUUUAUUCAGGGGAAACUUGAUUUGAGAUUUUUAUGCCUGUGACUUCCUUGGAAAUCAAAUGUAAAGUUUAAUUGAAAGAAUGUAAAGCAACCA [MITF RNA 1621-1740]” the binding [1] was “binds”.

“GGAUUGUACAAAUAAGUGUGCAGUAUCUGUGAACUGAAUUCACCACAGACUUUAGCUUUCUGAGCAAGAGGAUUUUGCGUCAGAGAAAUGUCUGUCCAUUUUUAUUCAGGGGAAACUUGAUUUGAGAUUUUUAUGCCUGUGACUUCCUUGGAAAUCAAA [MITF RNA 1550-1709]” was tested, and the binding [1] was “binds”.

In the case of “GGACACUUGUUAGCGAAUCCUCCCUGCACUGCAUUCGCACAAACUGCUUCCUUUCUUGAUUCGUAGAUUUAAUAACUUACCUGAAGGGGUUUUCUUGAUAAUUUUCCUUUAAUAUGAAAUUUUUUUUCAUGCUUUAUCAAUAGCCCAGGAUAUAUUUUAUUUUUAGAAUUUUGUGAAACAGACUUGUAUAUUCUAUUUUACAACUACAAAUGCCUCCAAAGUA [MITF RNA 1330-1550]”, the binding [1] was “binds more weakly”.

Work on MITF RNA 1550-1740 (del1621-1669) yielded a pKd ([1]; 40 nM RNA) of 6.01.

With “GGAUUGUACAAAUAAGUGUGCAGUAUCUGUGAACUGAAUUCACCACAGACUUUAGCUUUCUGAGCAAGAGGA [MITF RNA 1550-1619]” the binding [1] was “no binding”.
